Measurements: the supplement of paper PMC9112550, “Optimization of the antimicrobial peptide Bac7 by deep mutational scanning” (BMC Biology, 2022)

Tested on: Escherichia coli TOP10
Experiment: shrunken log2 fold change of peptide-encoding DNA abundance (4.5 h post-induction vs induction); higher = less antimicrobial activity (less host growth inhibition)
Settings: time post-induction: 4.5 h; library: site-saturation at positions 5, 18, 19, 20
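Also: peptides expressed intracellularly from a pBAD plasmid library in pooled LB shake-flask culture, induced with 0.3% L-arabinose, DNA abundance read by NGS, three biological replicates, DESeq2 with apeglm shrinkage.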

| Sequence | shrunken log2 fold change |
| --- | --- |
| RRIRLRPPRLPRPRPRPMNNPRP | -0.604 |
| RRIRDRPPRLPRPRPRPGFSPRP | 0.0888 |
| RRIRLRPPRLPRPRPRPMSSPRP | 0.0128 |
| RRIRGRPPRLPRPRPRPKSMPRP | 0.366 |
| RRIRKRPPRLPRPRPRPMKNPRP | 0.212 |
| RRIRCRPPRLPRPRPRPTFHPRP | -0.366 |
| RRIRVRPPRLPRPRPRPNSLPRP | 0.0679 |
| RRIRTRPPRLPRPRPRPFFMPRP | -0.231 |
| RRIRARPPRLPRPRPRPLIRPRP | -0.0546 |
| RRIRHRPPRLPRPRPRPIVHPRP | -0.125 |
| RRIRCRPPRLPRPRPRPEYTPRP | -0.139 |
| RRIRHRPPRLPRPRPRPERRPRP | 0.0748 |
| RRIRKRPPRLPRPRPRPVLHPRP | 0.484 |
| RRIRLRPPRLPRPRPRPVTPPRP | -0.0834 |
| RRIRCRPPRLPRPRPRPFLWPRP | -0.119 |
| RRIRSRPPRLPRPRPRPIYMPRP | -0.533 |
| RRIRARPPRLPRPRPRPHDFPRP | 0.0354 |
| RRIRDRPPRLPRPRPRPDVVPRP | -0.0108 |
| RRIRQRPPRLPRPRPRPHQQPRP | -0.101 |
| RRIRPRPPRLPRPRPRPMREPRP | 1.07 |
| RRIRPRPPRLPRPRPRPSVDPRP | -0.187 |
| RRIRERPPRLPRPRPRPYIKPRP | -0.573 |
| RRIRYRPPRLPRPRPRPTNYPRP | 1.18 |
| RRIRARPPRLPRPRPRPDQQPRP | -0.0359 |
| RRIRYRPPRLPRPRPRPAQEPRP | 0.075 |

| Sequence | shrunken log2 fold change |
| --- | --- |
| RRIRHRPPRLPRPRPRPVKHPRP | 0.0596 |
| RRIRCRPPRLPRPRPRPPRCPRP | 1.9 |
| RRIRLRPPRLPRPRPRPPLHPRP | 0.456 |
| RRIRHRPPRLPRPRPRPNHDPRP | -0.719 |
| RRIRQRPPRLPRPRPRPTGQPRP | 0.146 |
| RRIRPRPPRLPRPRPRPSYSPRP | -0.149 |
| RRIRNRPPRLPRPRPRPKIRPRP | -0.0344 |
| RRIRNRPPRLPRPRPRPEMQPRP | -0.00804 |
| RRIRTRPPRLPRPRPRPIALPRP | -0.156 |
| RRIRHRPPRLPRPRPRPTDNPRP | -0.177 |
| RRIRSRPPRLPRPRPRPKNNPRP | -0.273 |
| RRIRWRPPRLPRPRPRPSSTPRP | 0.0549 |
| RRIRTRPPRLPRPRPRPVHCPRP | 0.0307 |
| RRIRHRPPRLPRPRPRPMQSPRP | -0.215 |
| RRIRERPPRLPRPRPRPAFDPRP | 0.107 |
| RRIRYRPPRLPRPRPRPWHLPRP | -0.0873 |
| RRIRRRPPRLPRPRPRPKDKPRP | 0.239 |
| RRIRGRPPRLPRPRPRPHPPPRP | 0.759 |
| RRIRERPPRLPRPRPRPHNCPRP | -0.417 |
| RRIRKRPPRLPRPRPRPHVAPRP | 0.0884 |
| RRIRYRPPRLPRPRPRPIILPRP | -0.605 |
| RRIRHRPPRLPRPRPRPKAWPRP | -0.00151 |
| RRIRFRPPRLPRPRPRPVMQPRP | -0.0242 |
| RRIRVRPPRLPRPRPRPLAKPRP | -0.252 |
| RRIRIRPPRLPRPRPRPKPGPRP | 0.53 |

| Sequence | shrunken log2 fold change |
| --- | --- |
| RRIRARPPRLPRPRPRPTYAPRP | 0.2 |
| RRIRKRPPRLPRPRPRPREMPRP | -0.0629 |
| RRIRARPPRLPRPRPRPRRTPRP | 0.577 |
| RRIRGRPPRLPRPRPRPCFGPRP | 0.262 |
| RRIRDRPPRLPRPRPRPEAAPRP | 1.84 |
| RRIRERPPRLPRPRPRPHDNPRP | -0.227 |
| RRIRCRPPRLPRPRPRPVFLPRP | -0.429 |
| RRIRFRPPRLPRPRPRPGTYPRP | -0.851 |
| RRIRFRPPRLPRPRPRPCEHPRP | -0.00783 |
| RRIRMRPPRLPRPRPRPWHKPRP | -0.00776 |
| RRIRIRPPRLPRPRPRPVCWPRP | 0.32 |
| RRIRQRPPRLPRPRPRPSPKPRP | -0.143 |
| RRIRWRPPRLPRPRPRPCLSPRP | -0.15 |
| RRIRKRPPRLPRPRPRPAWFPRP | 0.0729 |
| RRIRIRPPRLPRPRPRPVIWPRP | 0.204 |
| RRIRIRPPRLPRPRPRPSQTPRP | -0.0359 |
| RRIRDRPPRLPRPRPRPNVTPRP | -0.282 |
| RRIRDRPPRLPRPRPRPKDAPRP | -0.018 |
| RRIRERPPRLPRPRPRPAIMPRP | -0.299 |
| RRIRYRPPRLPRPRPRPIFGPRP | -0.281 |
| RRIRARPPRLPRPRPRPDAAPRP | 1.48 |
| RRIRWRPPRLPRPRPRPASSPRP | -0.0381 |
| RRIRQRPPRLPRPRPRPRRRPRP | 0.255 |
| RRIRQRPPRLPRPRPRPSIAPRP | -0.00998 |
| RRIRSRPPRLPRPRPRPQPGPRP | 0.287 |

| Sequence | shrunken log2 fold change |
| --- | --- |
| RRIRVRPPRLPRPRPRPVNYPRP | 0.0937 |
| RRIRWRPPRLPRPRPRPSVPPRP | 0.045 |
| RRIRWRPPRLPRPRPRPGKVPRP | -0.132 |
| RRIRWRPPRLPRPRPRPKLNPRP | 0.318 |
| RRIRGRPPRLPRPRPRPPYQPRP | 0.123 |
| RRIRTRPPRLPRPRPRPEVSPRP | -0.28 |
| RRIRWRPPRLPRPRPRPRPIPRP | 0.434 |
| RRIRFRPPRLPRPRPRPYHGPRP | -0.114 |
| RRIRCRPPRLPRPRPRPEPRPRP | 0.61 |
| RRIRRRPPRLPRPRPRPKFIPRP | -0.207 |
| RRIRARPPRLPRPRPRPPSVPRP | 0.479 |
| RRIRSRPPRLPRPRPRPANIPRP | -0.484 |
| RRIRDRPPRLPRPRPRPKFLPRP | -0.241 |
| RRIRYRPPRLPRPRPRPECAPRP | -0.126 |
| RRIRFRPPRLPRPRPRPCVMPRP | -0.143 |
| RRIRERPPRLPRPRPRPGICPRP | -0.0398 |
| RRIRIRPPRLPRPRPRPPYHPRP | -0.652 |
| RRIRARPPRLPRPRPRPRNPPRP | 0.225 |
| RRIRKRPPRLPRPRPRPGLMPRP | 0.343 |
| RRIRFRPPRLPRPRPRPLVGPRP | -0.0413 |
| RRIRPRPPRLPRPRPRPMTWPRP | -0.00489 |
| RRIRDRPPRLPRPRPRPWAGPRP | 0.0503 |
| RRIRMRPPRLPRPRPRPLNQPRP | -0.0442 |
| RRIRNRPPRLPRPRPRPWLEPRP | -0.00992 |
| RRIRQRPPRLPRPRPRPLFFPRP | -0.00141 |

| Sequence | shrunken log2 fold change |
| --- | --- |
| RRIRHRPPRLPRPRPRPGWGPRP | 0.0673 |
| RRIRNRPPRLPRPRPRPCPVPRP | -0.438 |
| RRIRPRPPRLPRPRPRPCIHPRP | -0.252 |
| RRIRCRPPRLPRPRPRPLDTPRP | -0.153 |
| RRIRNRPPRLPRPRPRPATCPRP | -0.00428 |
| RRIRPRPPRLPRPRPRPESPPRP | 0.161 |
| RRIRMRPPRLPRPRPRPDCMPRP | 2.24 |
| RRIRVRPPRLPRPRPRPHMHPRP | -0.517 |
| RRIRIRPPRLPRPRPRPANWPRP | 0.236 |
| RRIRNRPPRLPRPRPRPETRPRP | 0.254 |
| RRIRVRPPRLPRPRPRPLCCPRP | -0.0983 |
| RRIRHRPPRLPRPRPRPYWDPRP | -0.849 |
| RRIRHRPPRLPRPRPRPPDKPRP | -0.112 |
| RRIRERPPRLPRPRPRPGPAPRP | 0.439 |
| RRIRNRPPRLPRPRPRPACPPRP | 0.307 |
| RRIRQRPPRLPRPRPRPTHQPRP | 0.403 |
| RRIRIRPPRLPRPRPRPPIEPRP | 0.0545 |
| RRIRFRPPRLPRPRPRPYIGPRP | -1.25 |
| RRIRTRPPRLPRPRPRPIGLPRP | -0.115 |
| RRIRSRPPRLPRPRPRPNAQPRP | 0.0609 |
| RRIRARPPRLPRPRPRPMFGPRP | 0.215 |
| RRIRTRPPRLPRPRPRPSCGPRP | -0.0561 |
| RRIRKRPPRLPRPRPRPMFSPRP | -0.0859 |
| RRIRARPPRLPRPRPRPVACPRP | 0.284 |
| RRIRRRPPRLPRPRPRPCWEPRP | 0.109 |

| Sequence | shrunken log2 fold change |
| --- | --- |
| RRIRDRPPRLPRPRPRPLLQPRP | 0.287 |
| RRIRRRPPRLPRPRPRPNQVPRP | 0.12 |
| RRIRPRPPRLPRPRPRPGCMPRP | 0.179 |
| RRIRYRPPRLPRPRPRPMTNPRP | -1.55 |
| RRIRQRPPRLPRPRPRPAHNPRP | -0.0225 |
| RRIRMRPPRLPRPRPRPSDQPRP | -0.198 |
| RRIRKRPPRLPRPRPRPFVWPRP | -0.0438 |
| RRIRKRPPRLPRPRPRPPTVPRP | 0.266 |
| RRIRVRPPRLPRPRPRPYFLPRP | -0.149 |
| RRIRLRPPRLPRPRPRPRGRPRP | 0.149 |
| RRIRQRPPRLPRPRPRPIQSPRP | 0.0147 |
| RRIRGRPPRLPRPRPRPYTRPRP | -0.0484 |
| RRIRRRPPRLPRPRPRPFYRPRP | -0.0117 |
| RRIRIRPPRLPRPRPRPWYYPRP | -0.00149 |
| RRIRCRPPRLPRPRPRPRMEPRP | 0.0253 |
| RRIRWRPPRLPRPRPRPEMFPRP | 0.274 |
| RRIRIRPPRLPRPRPRPYVTPRP | -0.526 |
| RRIRHRPPRLPRPRPRPQIPPRP | 0.0645 |
| RRIRDRPPRLPRPRPRPQYPPRP | -0.219 |
| RRIRLRPPRLPRPRPRPFLSPRP | -0.643 |
| RRIRARPPRLPRPRPRPAANPRP | 0.741 |
| RRIRIRPPRLPRPRPRPYCAPRP | -0.978 |
| RRIRNRPPRLPRPRPRPNANPRP | -0.199 |
| RRIRARPPRLPRPRPRPETAPRP | 0.236 |
| RRIRRRPPRLPRPRPRPYWQPRP | -0.0961 |
